Test: soluble on expression in E. coli; label from the status in PepcDB or PDB records

Sequence	soluble on expression in E. coli
MGSDKIHHHHHHMAGSAGGLSASDGDFFLCDLFDPVPKGDLGTMEHPVFSLATRPDRRILTYEHNGVEITVTPSVKGRATIFDKDILIFCTSQLMAAINANRPVSRTLQLTAHDLLLATGRDRSGDGYKRLRAAFERLAGTRITTNLITGGVEVTQGFGLIEAWQIVRRTRNGRMVSVSVTLSEWLYRAALTKSVLTLSRQYFRMRKPLERRIYELARKHCGRQNEWRVSVDTLLKKSGSASPRRVFRAMLREMIAADALPDYHLQEEPGDILRVTLRDAVIEAAGRPIVSSDTLNQARALMPGWDVYVLEAEWRNWWAATGRPHLRSPDKAFLGWVRTQAARA	not soluble
MGSDKIHHHHHHMALKGKGQAKSPNVDDNPQLGLESEIPVAPRSKRQTRQAEEVQAKDPYLDSVKELDDVLLKFKKYSKSMSSIENKVFSSSGGCFKSKNERVNAYSFTCSSFADKIEEYSYDPANSFPYKRGVKLVLKESSIYVEVGADTDMYGICVDVCEFSSTAYVLPITNNFEGYLVTRNPSIKMGEILDINNNGVIIKAGGGPPTVINAYALSDSFTINFAPEDEHQDQARYPKQEYSINLIKVAIFGNRGLEKTVTPEAGG	not soluble
MAHHHHHHMTADARTDDGGLRRAYTRSMPAVLRPLWLLEESMRDVQVQWEEIIEGVMVEDVSFSSVRAAVLHVERLASQLKAIKQELMPRLSHFSQKEEDSEQPFLRYCSCAAKPTVNGDNSICDLAQGEQTQAARLAARVWVWGVCVGTIMNDLELLSTSLSFAASTCLLEKFAEEVRLTEASTFFLGKDEGVASPLSDSDLLLACQLLYHLFTGDDAAAEMTCHRVLSLIDDCEERDDGKECRGCILSRLVRIAECVAAEDYGALQVLMKVDFFTGVDTLCSLPPLIIFFTQMMLDTVVHRQLVQGCFQNVWRPVINVDRPARDESPSVPSEAMMNSFCSSSRLSFTTKRRLMTCCAVFRESLPPRVPWPIPEDLMDRCFRMGL	not soluble
MLALSRGRYLARPAAGLEDLRRAQELRWLAFHARRAGSGASGLDADRFDGACSHMLIEEAESGALVGCFRFLTFASGREIGRSYSAQFYELSALEGFAGPMVEMGRFCIHPDRRDPDILRVAWGALTQHVDRAGIEMLFGCSSFHGTEPEAYLDTFAMLKERHLAPPRWLPRVKAASVYRFAQRLARREPDARRAMLQMPPLLRTYLMMGGWVSDHAVVDREMDTLHVFTGLEIGAIPARRARALRAVAG	not soluble
MGSDKIHHHHHHMTVADLVAGLRESRGFRHKTDIVDVVGSLAKRLPRGKRDLAQAVALGDDCAALADGDGYLLFAIEGMVSDFVSAMPWFAGYSSVMVNVSDIYAMGGRPLAVVDALWSQGIGAAEEVLAGMAAASVAYGVPIVGGHTNTRSEAAQLAVSIIGRARALLSSFNAKPGDSLMMAVDLRGRFEEPYPFWNASVDAPPERLRADLELLPQLAENGLCDAAKDISMAGTLGTALMLLECSQVGARIDLACIPKPEGVPLERWVSAFPSFGYLLSVRPEHVETVRAKFSARSLACSVIGSVDATSQVVLHRQDDAATLWDFQREPFIIGKDEVK	not soluble
MAMEIGEDEWKVCCGSSEFAKQMSTSGPLTSQEAIYTARDIWFNQVNVTDWLEAFSAHPQIGNTPSPSINSDFARRSVSEQSTAFATTSASALQELAEWNVLYKKKFGFIFIICASGRTHAEMLHALKERYENRPIVELEIAAMEQMKITELRMAKLFSDKAKVISETDSSSSPVSTKPQDRLRIIGGHLNVAAEAKAPKRSRPPITTHVLDVSRGAPAAGVEVHLEVWSGTTGPSFVHGGGGVWSSVGTSATDRDGRSGPLMDLVDALNPGTYRISFDTAKYSPGCFFPYVSIVFQVTESQKWEHFHVPLLLAPFSFSTYRGS	soluble
MSLLLEILDLSRSTYYYQVKRLAQGDKDIELKHVIREIYDEHKGNYGYRRIHMELRNRGFVVNHKKVQRLMKVMGLAARIRRKRKYSSYKGEVGKKADNLIKRHFEGSKPYEKCYTDVTEFALPEGKLYLSPVFDSYNCEIIDFTLSRSPNLKQAQTMLEKTFPADSYSGTILHSDQGWQYQHQSYHDFLESKGILPSMSRKGNSPDNGMMDSFFGILKSEMFYGLETTYQSLDKLEEAITDYIFYYNNKRIKAKLKGLSPVQYRTKSFQEGHHHHHH	not soluble
MSLTHGDVMLLATSFAPGSSNIIYQVIDELVNYFKKFLFTVNYDSELTTIADCFDLLNIPKDHPSRNLTDTFYLDKNRLLRTHCTAATLRAVKETKKSNNPDIRIASFGAVFRKDDDDATHSHQFNQLDFMWIKKDFSLTNLKWFMQNMINHIFGENTSARFRLSHFPFTEPSFEIDIRCWLCQNGCGVCKKTRWIEVLGAGILHPQVMANMGFSDTDNIRGIAAGIGIERLVMLKHGISDIRDLYDNNFKFLAQFTEGHHHHHH	not soluble
MAVESRVTQEEIKKEPEKPIDREKTCPLLLRVFTTNNGRHHRMDEFSRGNVPSSELQIYTWMDATLKELTSLVKEVYPEARKKGTHFNFAIVFTDVKRPGYRVKEIGSTMSGRKGTDDSMTLQSQKFQIGDYLDIAITPPNRAPPTSGRMRPY	soluble
MGSDKIHHHHHHMKVLEKDYQINSVRKAIDAGANSIIALPTGGGKSICILKLCQAMPDKKVVISLRNAALVPQLLHTLTINGLSVSVVKSGYKYIAGGDVTLVMEQSFGRRKHLNIQCDVLLRDEYHVGCMGGVYIAMREELSPDLIIGLTATPIDRLGVYIDKSMQLIEETTTKMLIEAGELAKPVYKVPSLSQEIDYSAVKMYRGDFSVSGLDNILLEHCSLVAQQTVDDALSHGRKVMLFANSINHVESLSEAFDLLGIEHERVHSQRSSDENDESIRRYKSNEVRLIINMSMLTIGFDDPTTDCVVLARPTKILRLYLQIIGRCLRASKGKTSALILDLAQCISTHGFAEDLRDFTRKTSKSAAIMAERLSVTNIGQFVDGEFTYNESIERKVVKKRAPVIRRKPRDGLVASKELVDRAASNRAAALLRLNPRMEKLVSTIELVNIVYEQQDESSKMLDEVAMVKLVALIGFAYSDALVDSCTALVEGLHAQNQSIRGLPLRVSNLITSIAMQDLGVKEVVTKS	not soluble
MTDYLADVQKYDSSADEAVVNKIVRHLGIALRNKDSALVSASDPKELERVREKWCEKKLGVGGSDADAAIAATAKAMADDRSKSRVTFYYLVAKNLGKLQTL	not soluble
MGSDKIHHHHHHMRDQQLFLFGGGPPFTPMLCRQFVSCLKQSGPVALLYVPRPGSNWDDYAPIYTDALTANGVTDFFHFPLSARPTSEQLEQLAGSAGIIISGGETERYQQFIVGTPIGTIIQERFQHGVPVAGFSAGALLTPDECRIPVIDQRNGQALVLKGLGLLTDAVISVHYDTWQEETNLSDAFMKTASNFGYGLPERSGIHLKNGQLMQQEGPEVVLLRQKGEYI	not soluble
GSHHHHHHSSGLVPRGSFNELNAINENIRDDLSALLKSDFFKYFRLDLYKQCSFWDANDGLCLNRACSVDVVEDWDTLPEYWQPEILGSFNNDTMKEADDSDDECKFLDQLCQTSKKPVDIEDTINYCDVNDFNGKNAVLIDLTANPERFTGYGGKQAGQIWSTIYQDNCFTIGETGESLAKDAFYRLVSGFHASIGTHLSKEYLNTKTGKWEPNLDLFMARIGNFPDRVTNMYFNYAVVAKALWKIQPYLPEFSFCDLVNKEIKNKMDNVISQLDTKIFNEDLVFANDLSLTLKDEFRSRFKNVTKIMDCVQCDRCRLWGKIQTTGYATALKILFEINDADEFTKQHIVGKLTKYELIALLQTFGRLSESIESVNMFEKMYGKRLLER	soluble
MAHHHHHHMPTEADLEKIRRERAARYQQLSEAEKPRVEPCPHCHELPYKKEVCPETGIFHNLERHTIVGGAVVQSNIVRSSELMEAIDRSRIRWVESRTQMVRADAVSLNLFQSFVRQLDWSLQRYGILYGKYDASLNLIEVHAIYEPEQHGDAYTFHYLPDKRLPNVDRIAALLGLRRVGAVCTHPPRDIEEMVLSSREILLCAREQSRFGDECVLLTMSPSLTTGRIECQAWQTSPQAVHFYRLGVLREKSDDYSDLESAKYVHSSIPLEVAQQETDEKGHPRVVTMAPSHDIDTRWFTSYVAVQQFESPVVRNLFMRVSRPGMEPPAMINLRNYMEDPKRRKVPLIEKLADFHVLIFLAESVFSVADDMPVIIGAITKQRPAEDAMHYGEVLKLYLEQ	soluble
GSVRPVVGEIAANSIAAEAQIAPGTELKAVDGIETPDWDAVRLQMVDKIGDESTTITVAPFGSDQRRDVKLDLRHWAFEPDKEDPVSSLGIRPRGPQ	soluble
AHHHHHHGSKFEELNEKIKKVYGKVRTIDDFHWHISDNLIHGIHKKSGLRLEIRIAESKEAADKIAQKKEPGNLMVIVVPGKETFYVNNGAFVLALKFLRSTIQDISDHIVWAGFKVVERDGALEQEDIYEYLGGRLIEHIKSGMVNGKDYIFWQFYKCEHCGKYVDIENLVRHMKTHGEDVKEWSEEKYEVLELSFEDKKVYNKFGKEVPLEEFVEETQDFIKEVFES	soluble
MAESVEKLEDGIVRSAEQVSSQIRAAKDAIASVIFGQDRVIENTLVTILSGGHALLIGVPGLAKTKLVETLGVTLGLDAKRIQFTPDLMPSDILGAEVLDESTAGKRSFRFIAGPVFAQLLMADEINRASPRTQSALLQAMQEQHITVAGARHDLPKPFHVLATQNPLEQEGTYPLPEAQLDRFLMEIDVDYPDRDAERRILFETTGAEETLAKGSMTADALITAQRLIRRLPVGDSVVEAILSLVRSARPGPDSGETGKFIAWGPGPRASQSLMLAVRARALIDGRLAPSVDDVLDLAEPILKHRMALTFQARAEGRTIPDVIRQLKTRIGLEHHHHHH	soluble
MGSDKIHHHHHHMGLASPWQVSISSFDAEKKRLDIHLDVAPGSTFCCPECGILKLQSFPWSGRDSGFTLLFEAMIMVMARSMAVKAIATIVGEHDTRIWRIVHHYVDQAREMEDYSAVTTVGVDEPSSKRGHNSVTLFADLARSKVLFATEGKDASTVERFRDDLVAHKGNPASVTECCSDMSPACISGIGSHFVNAHLSFDKFHVMQIINHAVDEVRRQEQQERPELKKSRYLWLKNQQNLKAKQRNRLEELSLAKLNLKTARADRMRLAFQECFNQPVTLAESFLKKWCFRAANSISPYPLETARSQDNDGWTHRASWAGI	not soluble
MFSVTLLVVSCGILAAAYPYSQQYGNYDQQYSQQSQYYPSSGQQGYRGGYQSNPGMQGGYQGNGQDSYQDFQGYQGYQRGQGGQRGYQGYQSNQRSQGSYPERYDSSMYSPVMDLTNYYGSQGTPQYYGYPSSASYQMTPYYQNQNQGYMQQQQYNTPSQSSWSPMYYGNGYQSQQSQQQQSSMGIRPYQSSWGQTQGTNTWGSPYQFTKVDAQVTDDDNVDGSGMDSSEQTSSPASTDDSQMTSNDD	not soluble
MTCDDLKSGEKRLIPKPTCRFKDAFQQYPDLLKSIIRVGILKPTPIQSQAWPIILQGIDLIVVAQTGTGKTLSYLMPGFIHLDSQPISREQRNGPGMLVLTPTRELALHVEAECSKYSYKGLKSICIYGGRNRNGQIEDISKGVDIIIATPGRLNDLQMNNSVNLRSITYLVIDEADKMLDMEFEPQIRKILLDVRPDRQTVMTSATWPDTVRQLALSYLKDPMIVYV	soluble
MSLQNFDFNEALKGIQAGKPITGSDGVLAPLIKQLTEAALNAEIQSHLEQSSTSNRRNGYSKKTVKSAAGSFELETPRDRNGEYEPVLVKKHQTKLTAEIDSRILSLFSHGMSYRDIRHHIAEIYQLEVSEATISSITDELIPQLKAWQSRPLDSVYPFVWLDAIHYKVKDEGRYVSKAIYTLLALNTEGKKELIGLYCSESEGANYWLSVLTDLHNRGVQDILIACVDGLKGFPEAINAIFPNTEVQLCVIHQIRNSIRYVASRDQKAFMRDLKPVYKAVNKESAELALDDLEAVWGDQYPAVIKSWRDKWHLLSAYFKYPEAVRKPIYTTNAVEAVHRQFRKLTKTKGAFPNETSLLKLLYVGMLNASAKWTMPIRNWGQTMMQLSIYFPGRLDSVMREGHHHHHH	soluble

From the DeepSol protein solubility set
